Biological target: T1, DNA ligase IV catalytic region (residues 1–609) (human, UniProt P49917 1-609)
T1 construct: Cloned in pOPINS; whether the His6-Sumo tag was removed is told only in the Supplemental Experimental Procedures; the derivative crystals carry nine mercury atoms from thiomersal; the methods point to the recombinant construct for the crystals; also called catalytic region of LigIV
T1 sequence (looked up): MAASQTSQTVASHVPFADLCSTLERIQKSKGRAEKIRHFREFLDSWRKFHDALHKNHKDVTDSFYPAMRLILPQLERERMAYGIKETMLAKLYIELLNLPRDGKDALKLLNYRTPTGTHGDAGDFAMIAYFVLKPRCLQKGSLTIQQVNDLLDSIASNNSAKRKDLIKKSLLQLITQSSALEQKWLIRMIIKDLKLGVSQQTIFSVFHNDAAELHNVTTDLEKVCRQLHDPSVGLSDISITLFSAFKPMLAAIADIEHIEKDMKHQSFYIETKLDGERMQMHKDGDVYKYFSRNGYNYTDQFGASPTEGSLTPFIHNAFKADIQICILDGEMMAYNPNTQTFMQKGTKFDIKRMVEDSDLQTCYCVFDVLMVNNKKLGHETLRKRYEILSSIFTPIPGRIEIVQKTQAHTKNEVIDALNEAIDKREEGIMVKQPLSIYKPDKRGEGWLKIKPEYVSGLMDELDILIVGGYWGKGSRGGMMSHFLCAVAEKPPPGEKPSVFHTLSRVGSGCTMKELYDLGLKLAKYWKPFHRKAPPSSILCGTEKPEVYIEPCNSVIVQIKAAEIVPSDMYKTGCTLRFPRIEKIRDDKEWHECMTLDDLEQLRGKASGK
Experiment: crystal structure; vapor diffusion, 100 mM MES (pH 5.6–5.7), 2.0 M (NH4)2SO4, 10 mM YCl3; native crystals and crystals soaked in 1 mM thiomersal
Details: both partners purified

B1: Artemis peptide (residues 485–495) (peptide, UniProt Q96SD1 485-495, looked up)
peptide: DVPQWEVFFKR
notes: holds P487, W489, F492 and F493; also called Artemis fragment; source: synthetic peptide (PNAC facility, Department of Biochemistry, University of Cambridge)
B1: binds.

From publication PMC3664939, “Structure of the Catalytic Region of DNA Ligase IV in Complex with an Artemis Fragment Sheds Light on Double-Strand Break Repair” (Structure(London, England:1993), 2013)
